Test results reported in patent US20150086555A1.

B1: TCN-529 (5297_H01) (antibody, V domains shown)
VH: QITLRESGPTLVKPTQTLTLTCTFSGFSLSTNGVNVGWIRQPPGKALEWLALIYWDDDKRYSPSLKRRLTITKDTSKNQVVLTLTNMDPVDTATYYCAHRPDFYGDFEYWGPGTLVTVSS
VL: QSALTQPASVSGSPGQSITISCTGSSSDIGGYNYVSWYQQHPGKAPKLMIYDVNNRPSGVSNRFSGSKSGNTASLTISGLQTDDEADYYCGSYTGSPHYVFGTGTKVTVL
B2: TCN-532 (5262_H18) (antibody, V domains shown)
VH: QVQLQESGPGLVKPSETLSLTCTVSGGSVSSETYYWSWIRQPPGKGLEWIGYIYYIGNTDYRPSLKSRVTISLDTSKNQFSLKLSSVTAADTAVYYCARGAYYDSSGYPAFYIWGQGTMVTVSS
VL: QSVLTQPPSVSGAPGQRVTISCTGSSSNIGSDYDVHWYKQLPGTAPKLLIFGNSNRPSGVPDRFSGSKSGTSASLAITGLQAEDEADYYCQSYDSSLSGFHVFGSGTKVTVL
B3: TCN-526 (5084_C17) (antibody, V domains shown)
VH: EVLMVESGGGLVQPGGSVRLSCVASGFSFSSHWMTWVRQAPGKGLEWVANIEDDGGDKYYVDSVKGRFIISRDNAKNSVYLQMNSLRAEDTAVYFCARGSGSSDRSDYDPHYYYYLDVWGKGATVTVSS
VL: DIQLTQSPSSLSASVGDRVTITCRASQSISRYLNWYQQKPGKAPKLLLFAASTLLDGVPSRFSGSGSGTDFTLTISSLQPEDFATYYCQRNHSPSWTFGQGTRVEIK

Tests used:
Details in all cases: remark: other sources report otherwise
[1] = molecular target: T1, recombinant soluble homotrimeric HA of A/duck/Yangzhou/02/05 (H8N4) (Influenza A virus A/duck/Yangzhou/02/2005(H8N4)); test: trimeric HA microarray, transfection supernatant set 3
[2] = molecular target: T2, recombinant soluble homotrimeric HA of A/swine/Ontario/01911-2/99 (H4N6) (Influenza A virus A/Swine/Ontario/01911-2/99 (H4N6)); test: as above
[3] = molecular target: T3, recombinant soluble homotrimeric HA of A/Japan/305/57 (H2N2) (Influenza A virus A/Japan/305/1957(H2N2)); test: as above
[4] = molecular target: recombinant soluble homotrimeric HA of A/South Carolina/1/18 (H1N1) (Influenza A virus A/South Carolina/1/18 (H1N1)); test: as above
[5] = molecular target: T4, recombinant soluble homotrimeric HA of A/Wisconsin/67/05 (H3N2) (Influenza A virus A/Wisconsin/67/2005(H3N2)); test: as above
[6] = molecular target: T5, recombinant soluble homotrimeric HA of A/chicken/Vietnam/NCVD-016/08 (H5N1) (Influenza A virus A/chicken/Vietnam/NCVD-016/2008(H5N1)); test: as above
[7] = molecular target: T6, recombinant soluble homotrimeric HA of A/California/4/09 (H1N1) (Influenza A virus A/California/04/2009(H1N1)); test: as above
[8] = molecular target: recombinant homotrimeric HA A/Netherlands/219/03 H7N7 (Influenza A virus A/Netherlands/219/03(H7N7)); test: protein microarray, purified IgG, trimeric HA
[9] = molecular target: recombinant homotrimeric HA A/duck/Yangzhou/02/05 H8N4 (Influenza A virus A/duck/Yangzhou/02/2005(H8N4)); test: protein microarray, purified IgG, trimeric HA
[10] = molecular target: recombinant homotrimeric HA A/California/4/09 H1N1 (Influenza A virus A/California/04/2009(H1N1)); test: protein microarray, purified IgG, trimeric HA
[11] = molecular target: recombinant homotrimeric HA A/South Carolina/1/18 H1N1 (Influenza A virus A/South Carolina/1/18 (H1N1)); test: protein microarray, purified IgG, trimeric HA
[12] = molecular target: recombinant homotrimeric HA A/Wisconsin/67/05 H3N2 (Influenza A virus A/Wisconsin/67/2005(H3N2)); test: protein microarray, purified IgG, trimeric HA
[13] = molecular target: recombinant homotrimeric HA A/Japan/305/57 H2N2 (Influenza A virus A/Japan/305/1957(H2N2)); test: protein microarray, purified IgG, trimeric HA
[14] = molecular target: recombinant homotrimeric HA A/chicken/Vietnam/NCVD-016/08 H5N1 (Influenza A virus A/chicken/Vietnam/NCVD-016/2008(H5N1)); test: protein microarray, purified IgG, trimeric HA
[15] = molecular target: recombinant homotrimeric HA A/Solomon Islands/3/06 H1N1 (Influenza A virus A/Solomon Islands/3/2006(H1N1)); test: protein microarray, purified IgG, trimeric HA
[16] = molecular target: T3, recombinant soluble homotrimeric HA of …; test: HA microarray, BCC supernatant
[17] = molecular target: T4, recombinant soluble homotrimeric HA of …; test: HA microarray, BCC supernatant
[18] = molecular target: T7, recombinant soluble homotrimeric HA of A/Netherlands/219/03 (H7N7) (Influenza A virus A/Netherlands/219/03(H7N7)); test: HA microarray, BCC supernatant
[19] = molecular target: T5, recombinant soluble homotrimeric HA of …; test: HA microarray, BCC supernatant
[20] = molecular target: T8, recombinant soluble homotrimeric HA of A/northern shoveler/California/HKWF115/07 (H6) (Influenza A virus A/northern shoveler/California/HKWF115/2007(H6N1)); test: HA microarray, BCC supernatant
[21] = molecular target: recombinant soluble homotrimeric HA of A/Hong Kong/1073/99 (H9N2) (Influenza A virus A/Hong Kong/1073/99 (H9N2)); test: trimeric HA microarray, transfection supernatant set 3
[22] = molecular target: T9, recombinant soluble homotrimeric HA of A/Solomon Islands/3/06 (H1N1) (Influenza A virus A/Solomon Islands/3/2006(H1N1)); test: as above
[23] = molecular target: T7, recombinant soluble homotrimeric HA of …; test: as above
[24] = molecular target: T8, recombinant soluble homotrimeric HA of …; test: as above
[25] = molecular target: recombinant homotrimeric HA A/northern shoveler/California/HKWF115/07 H6N4 (Influenza A virus A/northern shoveler/California/HKWF115/2007(H6N1)); test: protein microarray, purified IgG, trimeric HA
[26] = molecular target: recombinant homotrimeric HA A/swine/Ontario/01911-2/99 H4N6 (Influenza A virus A/Swine/Ontario/01911-2/99 (H4N6)); test: protein microarray, purified IgG, trimeric HA
[27] = molecular target: T1, recombinant soluble homotrimeric HA of …; test: HA microarray, BCC supernatant
[28] = molecular target: T2, recombinant soluble homotrimeric HA of …; test: HA microarray, BCC supernatant
[29] = molecular target: T9, recombinant soluble homotrimeric HA of …; test: HA microarray, BCC supernatant
[30] = molecular target: T1, recombinant soluble homotrimeric HA of …; test: trimeric HA microarray, transfection supernatant set 2
[31] = molecular target: T4, recombinant soluble homotrimeric HA of …; test: as above
[32] = molecular target: T7, recombinant soluble homotrimeric HA of …; test: as above
[33] = molecular target: T5, recombinant soluble homotrimeric HA of …; test: as above
[34] = molecular target: T6, recombinant soluble homotrimeric HA of …; test: as above

Row | Binder | Trimeric HA Binding: RLU [1] [RLU] | Trimeric HA Binding: RLU [2] [RLU] | Trimeric HA Binding: RLU [3] [RLU] | Trimeric HA Binding: RLU [4] [RLU] | Trimeric HA Binding: RLU [5] [RLU] | Trimeric HA Binding: RLU [6] [RLU] | Trimeric HA Binding: RLU [7] [RLU] | Trimeric HA Binding: RLU [8] [RLU] | Trimeric HA Binding: RLU [9] [RLU] | Trimeric HA Binding: RLU [10] [RLU] | Trimeric HA Binding: RLU [11] [RLU] | Trimeric HA Binding: RLU [12] [RLU] | Trimeric HA Binding: RLU [13] [RLU] | Trimeric HA Binding: RLU [14] [RLU] | Trimeric HA Binding: RLU [15] [RLU] | Trimeric HA Binding: RLU [16] [RLU] | Trimeric HA Binding: RLU [17] [RLU] | Trimeric HA Binding: RLU [18] [RLU] | Trimeric HA Binding: RLU [19] [RLU] | Trimeric HA Binding: RLU [20] [RLU] | other results
1 | B1 | 48 | 45 | 45 | 158 | 2940 | 33 | 735 | 1310 | 737 | 977 | 243 | 25600 | 1560 | 681 | 2820 | 435 | 51600 | 1160 | 410 | 533 | –
2 | B2 | 57 | 29 | 441 | 311 | 9970 | 29 | 23600 | 129 | 176 | – | 149 | 25200 | 764 | 487 | 571 | 176 | 18000 | 327 | 46 | 511 | Trimeric HA Binding: RLU [21]: 48 RLU; Trimeric HA Binding: RLU [22]: 59 RLU; Trimeric HA Binding: RLU [23]: 42 RLU; Trimeric HA Binding: RLU [24]: 78 RLU; Trimeric HA Binding: RLU [25]: 117 RLU; Trimeric HA Binding: RLU [26]: 122 RLU; Trimeric HA Binding: RLU [27]: 785 RLU; Trimeric HA Binding: RLU [28]: 119 RLU; Trimeric HA Binding: RLU [29]: 327 RLU
3 | B3 | – | – | – | – | – | – | – | – | – | 620 | 87 | 26600 | 642 | – | 804 | 246 | 49300 | 1340 | – | – | Trimeric HA Binding: RLU [30]: 4300 RLU; Trimeric HA Binding: RLU [31]: 27800 RLU; Trimeric HA Binding: RLU [32]: 5660 RLU; Trimeric HA Binding: RLU [33]: 3290 RLU; Trimeric HA Binding: RLU [34]: 3600 RLU; Trimeric HA Binding: RLU [27]: 596 RLU; Trimeric HA Binding: RLU [29]: 341 RLU
